What was measured:
Test in all cases: SPR
[1] = biological target: FIKK13_4_Y10A
[2] = biological target: FIKK13_4_S7A_Y10A
[3] = biological target: FIKK13_4_S7A
[4] = biological target: FIKK13_6
[5] = biological target: FIKK13_1

B1: Bio-His-FIKK13 (enzyme)
chain: MKKKENTQKLLNFVYYKIYLTFIVGLLYIFLLNILINHGGSKNDVRFTNIRCVRIFSENIKNINEISKKIYLYNIKNEKDDIICRDSLDNINEINNKINYTSVKGEDIIILKEGKYKNGCSDINFLDRKDVNKNDDQSFRNYHKTNNNKDENVNMKSYVYNWELGQKSLIKMLDYADNFYFNGVKYSDWKLTSMRRFNLNNNVLKDHKTYKSIINSKKGNDMKKVKLFIKKIPIDIWVEQFNLMKKYEGEYLIDKENYVMEAVSLAFLNEYYPGITPKFYKILYESDKNNMNEKNCKKYKFQDLNELNDILTKKLENNINGNIVLISEFFGENVFDYIKRKKNTLFVVSDISNEDKKKILYNSLNLLMRLHNAGLTHLDLSPDNMLISPKNYEMRLCDLSQSTPIYTNKLRHKEKLNSIKPFESFEPCIGKIEYIPPECWKIVWKYKMNNIKNPIEYLKNISNQEERKKYYYDVSCADKYMLGIFFIWMWNNGFIWKCSDPIQDKIFEIFMKSNMDLNKFIMTKSWPHELNNLINKLLHMEHRKTVKLSDLSRHPWWSSKN
Kd [1]: > 10 µM | Kd [2]: > 10 µM | Kd [3]: 3.4 µM | Kd [4]: > 10 µM | Kd [5]: > 10 µM

— doi:10.1101/2024.02.22.581535 (2024)
